Results reported in the supplement of paper PMC10126150.
± gives the standard deviation of the averaged measurements.

Test system: ATP
Experiment: switch fluorescence ratio, 500 uM ATP over buffer (Cy3 cluster intensity, sum of 5 cycles each) (fold (ratio)); higher = stronger signal-on switching upon ATP binding; sequences stand for … in TCGTCGGCAGCGTCAGATGTGTATAAGAGACAGTTTTTTTTTTTTTTTTTTTTTTTTT…TC
Conditions: aptamer strand: ATP DNA aptamer (quencher-CACCTGGGGGAGTATTGCGGAGGAAGG + anchor), 100 nM annealed; ATP concentration: 500 uM
Outline: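 The fluorescence ratio divides summed target-cycle Cy3 intensity by summed buffer-cycle Cy3 intensity for each cluster and is averaged per switch-domain sequence. Cy3-labelled switching-strand clusters on a modified Illumina MiSeq flow-cell were annealed to 100 nM quencher-labelled ATP aptamer, then imaged in selection buffer and again after 15 min with 500 uM ATP at 22 °C. Five such cycles were run, with NaOH stripping and re-annealing between them, and clusters outside 100-1000 RFU were excluded.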
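Note: ATP exposure 15 min at 22 °C before imaging.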

Row | Sequence | switch fluorescence ratio
1 | TGAGGGTTGG | 1.01 ± 0.027
2 | ACTTGGCGTC | 1.02 ± 0.06
3 | AAATCAGATA | 0.987 ± 0.033
4 | TGGCTTAGGG | 0.98975 ± 0.00065
5 | GAGTGAAGGT | 0.9963 ± 0.008
6 | GAGGTAGCGT | 1.01 ± 0.015
7 | TTTTTTTTCA | 1.01 ± 0.053
8 | GATGAGGCGG | 0.9832 ± 0.0015
9 | TGGGCGAGAG | 1.02 ± 0.034
10 | TCGTGCCAGG | 1.032 ± 0.01
11 | TTCAGTTTCG | 1.01 ± 0.027
12 | GAATAAAATA | 1.02 ± 0.039
13 | AACCAGGGGC | 1.37 ± 0.091
14 | AGGTCTAAGG | 1 ± 0.022
15 | CGGGGGGCAG | 1.01 ± 0.024
16 | TTAAGTATTG | 0.9956 ± 0.0079
17 | ACCAATGGTC | 1.02 ± 0.041
18 | GACAAAGGAT | 1.04 ± 0.025
19 | ATAGATCGCA | 1.02 ± 0.018
20 | GGGAGCGGGT | 1.04 ± 0.025
21 | GGTAATTAAA | 0.974 ± 0.011
22 | TTAATTATCA | 0.998 ± 0.018
23 | TTCTTTCGCG | 0.9467 ± 0.0023

Row | Sequence | switch fluorescence ratio
24 | CACGATATTC | 1.18 ± 0.027
25 | TTGGAGAAA | 1.27 ± 0.36
26 | TTTTGCGTCT | 1.06 ± 0.071
27 | TCCATCTTTT | 0.999 ± 0.014
28 | TAAAGGTCTT | 1.01 ± 0.016
29 | GCTAAAAGCT | 1.02 ± 0.011
30 | GTTATCAGGG | 0.995 ± 0.026
31 | ATCGGAGACA | 0.9681 ± 0.0067
32 | CAGATTGATG | 0.983 ± 0.043
33 | GTTTTGAGTT | 1 ± 0.021
34 | GAGGGGTCAG | 1 ± 0.039
35 | AGGTCTAGC | 0.995 ± 0.017
36 | TTCGAGTTGT | 1.006 ± 0.0025
37 | TCAAGAAGGT | 1 ± 0.018
38 | TCAGATGGTG | 1.02 ± 0.014
39 | AAAACCAGAC | 1.53 ± 0.078
40 | CTGAGTAGTT | 1.01 ± 0.018
41 | AGTATTGGGT | 0.998 ± 0.035
42 | TAAGTTATTT | 0.986 ± 0.031
43 | CCGGGGGGGT | 1.09 ± 0.077
44 | ATAAACCGGG | 1.02 ± 0.043
45 | TGTTGTTTGA | 0.991 ± 0.016
46 | GGGGAACTTC | 1.05 ± 0.045

Row | Sequence | switch fluorescence ratio
47 | TTTTTATGC | 0.975 ± 0.071
48 | CATTCTGACG | 1.18 ± 0.033
49 | AAAGGGTGCT | 1.1 ± 0.015
50 | CGTTTAATAA | 1.008 ± 0.0091
51 | TTTTGCAAAT | 1.13 ± 0.11
52 | CGTGTTTGTG | 0.999 ± 0.067
53 | TAGAGGCCTG | 1.04 ± 0.017
54 | TTGATAGACG | 1.07 ± 0.042
55 | GGGGGTACGC | 1.03 ± 0.028
56 | ACTGGTAAGG | 1.009 ± 0.0053
57 | CAGAACGCTG | 1.35 ± 0.12
58 | GATTGACGTG | 0.957 ± 0.08
59 | AAACAAAAAT | 1.01 ± 0.012
60 | GCGGGTCACC | 0.992 ± 0.01
61 | GGTGAGCCTT | 0.987 ± 0.012
62 | ACATCATAAA | 0.988 ± 0.023
63 | GGCTGAGCGG | 0.976 ± 0.027
64 | ATAAGTTAAA | 1.07 ± 0.12
65 | ATATGATATC | 1.03 ± 0.062
66 | TTTTTGCCTA | 1.015 ± 0.0089
67 | GTTATCAGAT | 1.02 ± 0.021
68 | TTACTTTGGA | 1.03 ± 0.023
69 | AATACGGCAC | 1.852 ± 0.006

Row | Sequence | switch fluorescence ratio
70 | TAGTAACTAC | 1.05 ± 0.011
71 | TGGTAGTAGG | 0.995 ± 0.017
72 | CTTTTTATGT | 0.96 ± 0.016
73 | CTGCATCAGT | 1.04 ± 0.011
74 | GATGTAGGGA | 1.02 ± 0.029
75 | GAGCTCTTTC | 1.01 ± 0.017
76 | GGGTGCTGGG | 0.999 ± 0.042
77 | TCTGCTTGGG | 1.09 ± 0.13
78 | TGTTTGGGTG | 1.08 ± 0.11
79 | TCGTGGGAAA | 2.11 ± 1.5
80 | GGCGTTGTTC | 0.984 ± 0.034
81 | GTCTTTTTAA | 1.03 ± 0.032
82 | GAGGGCCTTA | 0.9885 ± 0.0025
83 | AACTGAGTGC | 1 ± 0.043
84 | AGATATGGTT | 0.994 ± 0.048
85 | ATTCTCCGGG | 1.18 ± 0.065
86 | TTTGAAGGAT | 1.29 ± 0.35
87 | CTATAAGTCT | 1.022 ± 0.0033
88 | TCTGACAGTT | 1.04 ± 0.029
89 | GACGTTTTTG | 0.996 ± 0.011
90 | GATTTGTTAG | 0.977 ± 0.022
91 | TGGGGAATGT | 1.01 ± 0.042
92 | GGTTTCGGCA | 1.01 ± 0.0045

Row | Sequence | switch fluorescence ratio
93 | ACTTATTCGG | 1.02 ± 0.019
94 | GATGGAGGGG | 0.9965 ± 0.0039
95 | AGGGACTTGT | 1 ± 0.03
96 | ACGGCTTAGG | 1.03 ± 0.034
97 | GTTGACAGTG | 1 ± 0.062
98 | CAAAGAGCTT | 1 ± 0.028
99 | TCGGGGCGAG | 1.02 ± 0.023
100 | TCTGCATGGT | 1.07 ± 0.013
101 | CGGTATGGTA | 0.972 ± 0.023
102 | CAGTAGTTAT | 0.996 ± 0.011
103 | AGTCGGGGGC | 1.03 ± 0.04
104 | AAACTGGGAT | 1.01 ± 0.033
105 | GAGAGTCTTC | 0.985 ± 0.0088
106 | GCATATCTAG | 1.03 ± 0.041
107 | CGAGGGTGTA | 0.999 ± 0.0014
108 | ACTACCTACA | 1.364 ± 0.0065
109 | AGCCAGGGGG | 1.03 ± 0.043
110 | TCAGTCAGTT | 0.991 ± 0.048
111 | CGGGGTGGGA | 1.01 ± 0.029
112 | ATGGGGGTGT | 1.004 ± 0.0059
113 | TAAAGAACAT | 0.997 ± 0.057
114 | AGGGGTATTG | 0.993 ± 0.017
115 | AGTTTATGCG | 0.979 ± 0.021

Row | Sequence | switch fluorescence ratio
116 | TGTTTTCCCT | 0.979 ± 0.053
117 | CGGAGTTATC | 1.35 ± 0.2
118 | ATGGTATGAA | 0.979 ± 0.035
119 | AGGGCGACGC | 0.912 ± 0.025
120 | TGCTTTTAGG | 0.996 ± 0.017
121 | TTAGCTTGAG | 1.01 ± 0.013
122 | TTAGACGCTT | 1 ± 0.011
123 | GATACTCAGC | 1.06 ± 0.0058
124 | AGTGTTTAAA | 0.969 ± 0.025
125 | GTGGGTGGTG | 1.015 ± 0.0046
126 | AAAGATAGGC | 0.954 ± 0.072
127 | TCCTTTAATC | 1.98 ± 1.4
128 | CTCTCAAATG | 1.03 ± 0.045
129 | GTCTACTGCT | 1.07 ± 0.028
130 | CGGGTTAAAC | 1 ± 0.027
131 | TCGGCACGGA | 0.999 ± 0.031
132 | CGTTTGGCTT | 1.01 ± 0.008
133 | TAGTTATTGA | 1.01 ± 0.038
134 | AGAGGGCTTG | 0.997 ± 0.018
135 | AGCTCATCGC | 1.05 ± 0.023
136 | AATGATCCAG | 0.983 ± 0.032
137 | GGAAGGTATG | 1.02 ± 0.071
138 | CGTATAATAG | 1.02 ± 0.04

Row | Sequence | switch fluorescence ratio
139 | AGGGTATGGG | 1.03 ± 0.058
140 | TGTTTATAAT | 0.99 ± 0.013
141 | CATTTGAGTG | 1 ± 0.042
142 | ATATTGATAT | 1.01 ± 0.021
143 | TTGGAACATA | 0.986 ± 0.03
144 | TCGGAAGATT | 1.01 ± 0.034
145 | GTATCTAGTT | 0.996 ± 0.024
146 | ATCGCATGGG | 1.03 ± 0.013
147 | GTTGGTTTTG | 1.008 ± 0.0057
148 | TTGGGTGCTA | 1.09 ± 0.16
149 | GATAGTTGTA | 1.01 ± 0.028
150 | ATGCTACCGT | 1.03 ± 0.049
151 | GGGAAGATTA | 0.966 ± 0.031
152 | TATGAGGGGT | 1.13 ± 0.047
153 | GGGTTGTCAA | 0.975 ± 0.0099
154 | GCTAGGGGTA | 0.987 ± 0.012
155 | AGCAGAAAAT | 1.01 ± 0.025
156 | CCTATGGGTT | 1.05 ± 0.015
157 | GTGTAAAAGC | 1.03 ± 0.011
